Laboratory results published in the supplement of paper PMC9112550, “Optimization of the antimicrobial peptide Bac7 by deep mutational scanning” (BMC Biology, 2022).

Test system: Escherichia coli TOP10
Assay: shrunken log2 fold change of peptide-encoding DNA abundance (4.5 h post-induction vs induction); higher = less antimicrobial activity (less host growth inhibition)
Settings: time post-induction: 4.5 h; library: site-saturation at positions 5, 18, 19, 20
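Also: peptides expressed intracellularly from a pBAD plasmid library in pooled LB shake-flask culture, induced with 0.3% L-arabinose, DNA abundance read by NGS, three biological replicates, DESeq2 with apeglm shrinkage.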

Sequence	shrunken log2 fold change
RRIRMRPPRLPRPRPRPAAQPRP	1.12
RRIRCRPPRLPRPRPRPMMLPRP	-0.117
RRIRERPPRLPRPRPRPCDFPRP	-0.502
RRIRERPPRLPRPRPRPLWNPRP	-0.298
RRIRWRPPRLPRPRPRPWNEPRP	0.0237
RRIRLRPPRLPRPRPRPMDMPRP	-0.384
RRIRIRPPRLPRPRPRPAMFPRP	-0.45
RRIRNRPPRLPRPRPRPVRIPRP	0.0513
RRIRDRPPRLPRPRPRPQKMPRP	-0.0885
RRIRIRPPRLPRPRPRPHITPRP	-0.66
RRIRCRPPRLPRPRPRPSIKPRP	-0.597
RRIRPRPPRLPRPRPRPHGQPRP	0.186
RRIRDRPPRLPRPRPRPWDNPRP	-0.00183
RRIRQRPPRLPRPRPRPWYYPRP	0.0179
RRIRTRPPRLPRPRPRPRLQPRP	0.123
RRIRIRPPRLPRPRPRPEASPRP	0.144
RRIRDRPPRLPRPRPRPRYAPRP	0.215
RRIRERPPRLPRPRPRPADQPRP	0.0155
RRIRNRPPRLPRPRPRPLFEPRP	0.205
RRIRERPPRLPRPRPRPTLIPRP	0.0112
RRIRSRPPRLPRPRPRPKCCPRP	-0.0585
RRIRERPPRLPRPRPRPQYWPRP	-0.617
RRIRYRPPRLPRPRPRPGTQPRP	-0.141
RRIRTRPPRLPRPRPRPKTGPRP	-0.104
RRIRKRPPRLPRPRPRPRMRPRP	1.06

Sequence	shrunken log2 fold change
RRIRMRPPRLPRPRPRPPESPRP	2.5
RRIRLRPPRLPRPRPRPRPYPRP	-0.0267
RRIRHRPPRLPRPRPRPSWYPRP	-0.152
RRIRGRPPRLPRPRPRPSDSPRP	-0.0596
RRIRMRPPRLPRPRPRPQIPPRP	-0.127
RRIRLRPPRLPRPRPRPTKQPRP	0.103
RRIRSRPPRLPRPRPRPQAWPRP	-0.0983
RRIRSRPPRLPRPRPRPFHMPRP	-0.365
RRIRMRPPRLPRPRPRPGLMPRP	0.518
RRIRNRPPRLPRPRPRPHLNPRP	-0.599
RRIRWRPPRLPRPRPRPFGNPRP	-0.0165
RRIRKRPPRLPRPRPRPCNIPRP	-0.697
RRIRTRPPRLPRPRPRPSCTPRP	-0.643
RRIRSRPPRLPRPRPRPLDQPRP	-0.0226
RRIRERPPRLPRPRPRPWPHPRP	-0.0947
RRIRWRPPRLPRPRPRPRKAPRP	0.285
RRIRTRPPRLPRPRPRPSHGPRP	0.0388
RRIRARPPRLPRPRPRPAQWPRP	0.252
RRIRNRPPRLPRPRPRPGIYPRP	-0.105
RRIRNRPPRLPRPRPRPFWCPRP	0.000145
RRIRIRPPRLPRPRPRPEYMPRP	-1.14
RRIRCRPPRLPRPRPRPFYTPRP	0.235
RRIRGRPPRLPRPRPRPPGFPRP	0.484
RRIRLRPPRLPRPRPRPMAQPRP	-0.00088
RRIRMRPPRLPRPRPRPEKEPRP	-0.0085

Sequence	shrunken log2 fold change
RRIRERPPRLPRPRPRPRFCPRP	-0.0399
RRIRWRPPRLPRPRPRPMYIPRP	-0.144
RRIRQRPPRLPRPRPRPVASPRP	-0.0704
RRIRCRPPRLPRPRPRPISYPRP	-0.485
RRIRWRPPRLPRPRPRPMMHPRP	0.159
RRIRQRPPRLPRPRPRPSPKPRP	-0.143
RRIRQRPPRLPRPRPRPVIPPRP	-1.12
RRIRQRPPRLPRPRPRPPQDPRP	1.1
RRIRKRPPRLPRPRPRPFIKPRP	-0.0863
RRIRIRPPRLPRPRPRPEHGPRP	-0.0885
RRIRSRPPRLPRPRPRPHVFPRP	2.95
RRIRNRPPRLPRPRPRPWDKPRP	0.0447
RRIRLRPPRLPRPRPRPDLAPRP	-0.062
RRIRQRPPRLPRPRPRPTVAPRP	0.118
RRIRHRPPRLPRPRPRPITNPRP	-1.23
RRIRLRPPRLPRPRPRPYKQPRP	-0.0145
RRIRMRPPRLPRPRPRPPPRPRP	2.36
RRIRVRPPRLPRPRPRPMAHPRP	0.00201
RRIRFRPPRLPRPRPRPPAYPRP	0.127
RRIRLRPPRLPRPRPRPINEPRP	-0.0016
RRIRNRPPRLPRPRPRPFISPRP	-0.0484
RRIRQRPPRLPRPRPRPACAPRP	0.587
RRIRPRPPRLPRPRPRPHGEPRP	-0.159
RRIRYRPPRLPRPRPRPYWHPRP	-0.451
RRIRSRPPRLPRPRPRPFAQPRP	0.185
